Laboratory results published in paper PMC3637437.
Where “and” joins values, the source holds several entries; their conditions need not be identical. Identical values can stand only once.

How the values were obtained:
Test in all cases: native gel or EMSA; 1 ug of each purified consensus Env gp140 on a NativePAGE native gel, silver stained
[1] = molecular target: Con M Env gp140 trimer (HIV-1 group M consensus) (bacteriophage)
[2] = molecular target: Consensus A Env gp140 trimer (bacteriophage)
[3] = molecular target: Consensus B Env gp140 trimer (bacteriophage)
[4] = molecular target: Consensus C Env gp140 trimer (bacteriophage)
[5] = molecular target: Consensus E Env gp140 trimer (bacteriophage)

Con M Env gp140 trimer (HIV-1 group M consensus)
stoichiometry N [1]: 3 and 2

Consensus A Env gp140 trimer
stoichiometry N [2]: 3

Consensus B Env gp140 trimer
stoichiometry N [3]: 3

Consensus C Env gp140 trimer
stoichiometry N [4]: 3 and 2

Consensus E Env gp140 trimer
stoichiometry N [5]: 3 and 2
